Assay results from article PMC11430614, “Bacterial Purine Nucleoside Phosphorylases from Mesophilic and Thermophilic Sources: Characterization of Their Interaction with Natural Nucleosides and Modified Arabinofuranoside Analogues” (Biomolecules, 2024).

Tests used:
[1] = test system: T1, EntPNP (PNP from Enterobacter); assay: HPLC phosphorolysis assay, Michaelis-Menten fit; type: biochemical, Enterobacter sp.; details: 50 mM KH2PO4, pH 7.5, 25 °C, tested up to 4 mM, no plateau
T1 construct: commercial preparation (Sigma-Aldrich); acts on 6-oxopurine nucleosides only
Source text: HPLC phosphorolysis assay, Michaelis-Menten fit on EntPNP (PNP from Enterobacter)

[2] = test system: T1, EntPNP (PNP from Enterobacter); assay: coupled xanthine oxidase assay, […] nm, Michaelis-Menten fit; type: biochemical, Enterobacter sp.; details: 50 mM KH2PO4, pH 7.5, 25 °C; phosphorolysis
[3] = test system: Nc1ncnc2c1ncn2[C@@H]1O[C@H](CO)[C@@H](O)[C@H]1O; assay: purified protein; details: 50 mM KH2PO4, pH 7.5, 25 °C, phosphorolysis
purified protein = substrate: OC[C@H]1O[C@@H](n2cnc3c(O)ncnc32)[C@H](O)[C@@H]1O; assay: purified protein; type: biochemical, Escherichia coli; details: 50 mM KH2PO4, pH 7.5, 25 °C, phosphorolysis
[4] = substrate: O=c1[nH]cnc2c1ncn2[C@@H]1O[C@H](CO)[C@@H](O)[C@@H]1O; assay: HPLC phosphorolysis assay, Michaelis-Menten fit; type: biochemical, Escherichia coli; details: 50 mM KH2PO4, pH 7.5, 25 °C, tested up to 4 mM, no plateau
Source text: HPLC phosphorolysis assay, Michaelis-Menten fit on EcPNP

With O=c1[nH]cnc2c1ncn2[C@@H]1O[C@H](CO)[C@@H](O)[C@@H]1O [9-(β-D-arabinofuranosyl)hypoxanthine] the Km [1] was 2900 ± 831 µM.

O=c1[nH]cnc2c1ncn2[C@@H]1O[C@H](CO)[C@@H](O)[C@H]1O [inosine] was tested, and the Km [2] was 107 ± 21 µM.

For EcPNP (Escherichia coli K-12), the Km [3] was 21 ± 5 µM and the kcat [3] was 137.7 s⁻¹.

B1: EcPNP (Escherichia coli K-12) (protein)
chain: ATPHINAEMGDFADVVLMPGDPLRAKYIAETFLEDAREVNNVRGMLGFTGTYKGRKISVMGHGMGIPSCSIYTKELITDFGVKKIIRVGSCGAVLPHVKLRDVVIGMGACTDSKVNRIRFKDHDFAAIADFDMVRNAVDAAKALGIDARVGNLFSADLFYSPDGEMFDVMEKYGILGVEMEAAGIYGVAAEFGAKALTICTVSDHIRTHEQTTAAERQTTFNDMIKIALESVLLGDKE
notes: recombinant from plasmid pER-EcPNP, host E. coli ER2566
Molecule B1 has a Km (purified protein) of 76 ± 21 µM, a kcat (purified protein) of 29.2 s⁻¹ and a Km [4] of 1810 ± 371 µM. For the same molecule, the kcat [4] was 0.709 s⁻¹.
